Patent US20130236459A1 (MERRIMACK PHARMACEUTICALS, published 2013)
Residue numbers refer to the chain shown, from its start. Read-outs that look alike come from different tables or passages of the source. Each block holds one binder with its values, some of them ahead of it.

Assays:
[1] = biological target: T1, ErbB3 (HER3), endogenous on human tumor cell lines (human, UniProt P21860 20-1342); experiment: cell-based or functional assay
[2] = biological target: T1, ErbB3 (HER3), endogenous on human tumor …; experiment: cell-based or functional assay; remark: listed apart in the source
[3] = biological target: T1, ErbB3 (HER3), endogenous on human tumor …; experiment: cell-based or functional assay; remark: listed apart in the source
[4] = biological target: T1, ErbB3 (HER3), endogenous on human tumor …; experiment: cell-based or functional assay; remark: listed apart in the source
[5] = biological target: T1, ErbB3 (HER3), endogenous on human tumor …; experiment: cell-based or functional assay; remark: listed apart in the source
mouse IGF-1R-His = biological target: T2, mouse IGF-1R-His (mouse, UniProt Q60751 31-936, limits assumed); experiment: ELISA, species specific IGF-1R-His coated plate
T2 construct: not shown: His tag, not further described
Experimental: (§1) 96-well Reacti-bind® plates (Pierce, Fisher cat. No. PI-I5041) are coated with 50 ul of species specific ErbB3-His or IGF-1R-His (R&D Systems, cat. No. 348-RB and 305-GR, respectively) at 2 ug/ml in PBS and incubated overnight at 4° C. The next day plates are washed with PBS+0.05% Tween-20 (PBS-T) and blocked for 1 hr. at room temperature with 100 ul of Protein-Free Blocking Buffer (Pierce). Plates are washed with PBS-T and 50 ul of each PBA is added in duplicate. Concentrations start at 500 nM (in PBS-T) and included ten additional two-fold dilutions and one blank (PBS-T only). Plates are incubated at room temperature for two hours and then washed with PBS-T. 50 ul of anti-Fc-HRP (Jackson Labs) is added at 1:40,000 in PBS-T, and plates are incubated in the dark for 1 hr. at room temperature. Plates are again washed with PBS-T and 100 ul of TMB substrate (Thermo Scientific, TMB and peroxide solution mixed 1:1) is added. The plates are incubated for 5-15 minutes at room temperature until a blue color develops, and the reaction is stopped with 100 ul of STOP solution (Cell Signaling Technology). The absorbance is read at 450 nm on a PerkinElmer Envision plate reader, and binding curves are generated using GraphPad Prism.

[6] = biological target: T3, IGF-1R (receptor for insulin-like growth factor 1), endogenous on human tumor cell lines (human, UniProt P08069 31-1367); experiment: cell-based or functional assay
[7] = biological target: T1, ErbB3 (HER3), endogenous on human tumor …; experiment: cell-based or functional assay; remark: listed apart in the source
[8] = biological target: T3, IGF-1R (receptor for insulin-like …); experiment: cell-based or functional assay; remark: listed apart in the source
mouse ErbB3-His = biological target: T4, mouse ErbB3-His (mouse, UniProt Q61526 20-641, limits assumed); experiment: ELISA, species specific ErbB3-His coated plate
T4 construct: not shown: His tag, not further described for this species form
Experimental: as §1

rat ErbB3-His = biological target: T5, rat ErbB3-His (rat, UniProt Q62799 20-641, limits assumed); experiment: ELISA, species specific ErbB3-His coated plate
T5 construct: not shown: His tag, not further described for this species form
Experimental: as §1

[9] = biological target: T3, IGF-1R (receptor for insulin-like …); experiment: cell-based or functional assay; remark: listed apart in the source
[10] = biological target: T3, IGF-1R (receptor for insulin-like …); experiment: cell-based or functional assay; remark: listed apart in the source

T3 sequence (P08069 31-1367): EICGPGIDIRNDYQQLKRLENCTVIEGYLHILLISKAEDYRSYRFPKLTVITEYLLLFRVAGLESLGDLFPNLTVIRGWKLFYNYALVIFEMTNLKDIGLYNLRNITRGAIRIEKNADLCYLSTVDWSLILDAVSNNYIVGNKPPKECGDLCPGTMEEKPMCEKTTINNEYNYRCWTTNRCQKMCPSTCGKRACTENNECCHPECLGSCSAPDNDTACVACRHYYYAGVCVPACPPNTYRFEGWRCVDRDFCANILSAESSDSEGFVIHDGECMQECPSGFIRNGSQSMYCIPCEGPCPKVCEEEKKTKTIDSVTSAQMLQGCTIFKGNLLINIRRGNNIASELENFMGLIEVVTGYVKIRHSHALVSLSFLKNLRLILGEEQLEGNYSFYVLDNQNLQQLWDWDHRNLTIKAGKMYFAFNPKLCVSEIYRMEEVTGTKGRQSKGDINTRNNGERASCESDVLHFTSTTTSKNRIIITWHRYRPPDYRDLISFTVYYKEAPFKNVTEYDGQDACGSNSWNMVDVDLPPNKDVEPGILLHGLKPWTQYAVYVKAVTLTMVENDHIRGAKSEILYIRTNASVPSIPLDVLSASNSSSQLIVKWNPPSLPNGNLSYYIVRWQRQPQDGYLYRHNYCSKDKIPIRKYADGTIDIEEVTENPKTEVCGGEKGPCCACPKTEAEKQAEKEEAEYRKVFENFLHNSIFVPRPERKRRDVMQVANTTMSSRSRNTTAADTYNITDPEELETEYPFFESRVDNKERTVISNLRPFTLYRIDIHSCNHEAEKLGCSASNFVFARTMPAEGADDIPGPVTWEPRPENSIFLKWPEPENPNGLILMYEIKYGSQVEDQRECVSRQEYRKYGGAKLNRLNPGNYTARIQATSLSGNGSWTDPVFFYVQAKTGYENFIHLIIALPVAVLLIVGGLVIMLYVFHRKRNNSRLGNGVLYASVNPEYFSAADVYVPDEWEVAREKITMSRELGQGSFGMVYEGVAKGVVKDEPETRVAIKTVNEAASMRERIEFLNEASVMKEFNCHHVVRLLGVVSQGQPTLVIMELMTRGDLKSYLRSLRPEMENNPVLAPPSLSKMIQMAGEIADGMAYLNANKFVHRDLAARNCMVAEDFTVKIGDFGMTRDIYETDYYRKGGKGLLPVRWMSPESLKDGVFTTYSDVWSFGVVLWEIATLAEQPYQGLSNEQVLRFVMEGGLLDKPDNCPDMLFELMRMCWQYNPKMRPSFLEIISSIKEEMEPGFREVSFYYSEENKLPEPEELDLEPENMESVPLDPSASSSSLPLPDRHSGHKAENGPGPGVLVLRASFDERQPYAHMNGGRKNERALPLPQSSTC
T1 sequence (P21860 20-1342 limits assumed): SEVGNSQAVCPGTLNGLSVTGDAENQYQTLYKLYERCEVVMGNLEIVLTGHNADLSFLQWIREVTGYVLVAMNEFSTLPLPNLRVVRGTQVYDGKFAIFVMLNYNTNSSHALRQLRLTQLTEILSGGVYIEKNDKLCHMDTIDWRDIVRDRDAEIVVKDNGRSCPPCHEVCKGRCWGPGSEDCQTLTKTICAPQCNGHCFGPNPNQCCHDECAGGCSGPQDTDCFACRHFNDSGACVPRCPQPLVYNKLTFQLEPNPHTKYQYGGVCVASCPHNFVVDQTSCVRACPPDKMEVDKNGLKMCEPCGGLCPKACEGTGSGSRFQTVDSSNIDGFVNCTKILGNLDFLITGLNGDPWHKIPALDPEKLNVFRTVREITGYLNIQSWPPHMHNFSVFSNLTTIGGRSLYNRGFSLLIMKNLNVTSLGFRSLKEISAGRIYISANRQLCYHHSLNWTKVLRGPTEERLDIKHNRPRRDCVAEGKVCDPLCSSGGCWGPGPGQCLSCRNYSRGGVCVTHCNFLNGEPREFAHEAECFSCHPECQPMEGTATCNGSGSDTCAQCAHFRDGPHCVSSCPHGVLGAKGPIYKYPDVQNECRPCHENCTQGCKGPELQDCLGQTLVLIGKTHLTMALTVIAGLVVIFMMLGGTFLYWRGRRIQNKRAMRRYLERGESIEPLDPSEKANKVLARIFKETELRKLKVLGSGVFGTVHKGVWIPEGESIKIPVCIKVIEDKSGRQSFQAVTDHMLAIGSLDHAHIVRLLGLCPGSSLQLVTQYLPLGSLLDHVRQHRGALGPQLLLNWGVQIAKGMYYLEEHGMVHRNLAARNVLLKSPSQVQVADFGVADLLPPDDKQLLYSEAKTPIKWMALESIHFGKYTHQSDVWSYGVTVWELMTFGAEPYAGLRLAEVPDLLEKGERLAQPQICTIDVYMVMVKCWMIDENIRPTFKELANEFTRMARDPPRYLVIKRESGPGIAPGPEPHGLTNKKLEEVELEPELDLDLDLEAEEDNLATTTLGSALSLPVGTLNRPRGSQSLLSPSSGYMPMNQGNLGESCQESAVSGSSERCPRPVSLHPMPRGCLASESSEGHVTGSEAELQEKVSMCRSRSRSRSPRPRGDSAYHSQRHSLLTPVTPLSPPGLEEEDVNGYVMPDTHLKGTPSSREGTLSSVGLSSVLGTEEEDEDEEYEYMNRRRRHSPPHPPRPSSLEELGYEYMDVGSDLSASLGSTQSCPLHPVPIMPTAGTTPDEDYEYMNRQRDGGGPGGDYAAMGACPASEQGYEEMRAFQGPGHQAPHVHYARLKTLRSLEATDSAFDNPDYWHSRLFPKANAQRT
T4 sequence (Q61526 20-641 limits assumed): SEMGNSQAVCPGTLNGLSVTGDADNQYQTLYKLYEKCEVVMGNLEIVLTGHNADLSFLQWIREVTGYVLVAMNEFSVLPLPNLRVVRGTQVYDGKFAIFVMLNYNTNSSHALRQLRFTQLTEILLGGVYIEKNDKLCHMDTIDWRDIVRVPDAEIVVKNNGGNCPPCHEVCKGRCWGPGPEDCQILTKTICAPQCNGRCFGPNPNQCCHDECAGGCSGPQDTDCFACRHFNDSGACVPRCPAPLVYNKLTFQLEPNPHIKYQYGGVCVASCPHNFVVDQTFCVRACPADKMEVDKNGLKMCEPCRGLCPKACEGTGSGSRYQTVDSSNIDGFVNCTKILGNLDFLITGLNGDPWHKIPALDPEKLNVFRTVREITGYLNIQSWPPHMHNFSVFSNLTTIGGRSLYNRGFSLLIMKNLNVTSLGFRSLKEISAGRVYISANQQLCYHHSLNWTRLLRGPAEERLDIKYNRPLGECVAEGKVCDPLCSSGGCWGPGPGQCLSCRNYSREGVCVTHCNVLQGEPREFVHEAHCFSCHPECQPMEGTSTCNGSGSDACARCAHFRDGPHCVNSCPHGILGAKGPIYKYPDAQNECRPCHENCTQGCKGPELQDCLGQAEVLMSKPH
T5 sequence (Q62799 20-641 limits assumed): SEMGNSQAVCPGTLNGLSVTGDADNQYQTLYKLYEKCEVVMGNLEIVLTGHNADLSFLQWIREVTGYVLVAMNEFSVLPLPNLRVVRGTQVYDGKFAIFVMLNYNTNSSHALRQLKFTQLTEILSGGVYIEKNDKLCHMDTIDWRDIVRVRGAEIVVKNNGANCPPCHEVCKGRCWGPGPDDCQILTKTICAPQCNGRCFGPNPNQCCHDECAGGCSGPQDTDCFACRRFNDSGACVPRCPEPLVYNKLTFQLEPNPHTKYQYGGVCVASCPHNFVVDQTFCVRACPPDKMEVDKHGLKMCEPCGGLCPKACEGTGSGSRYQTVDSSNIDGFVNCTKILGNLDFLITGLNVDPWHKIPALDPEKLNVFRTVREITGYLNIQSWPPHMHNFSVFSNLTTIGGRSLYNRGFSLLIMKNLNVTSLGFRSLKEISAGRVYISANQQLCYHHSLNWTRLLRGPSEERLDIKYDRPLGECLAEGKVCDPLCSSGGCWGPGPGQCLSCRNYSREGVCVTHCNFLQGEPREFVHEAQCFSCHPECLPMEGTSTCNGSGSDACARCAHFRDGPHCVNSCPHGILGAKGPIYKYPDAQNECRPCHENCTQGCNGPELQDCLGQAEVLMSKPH
T2 sequence (Q60751 31-936 limits assumed): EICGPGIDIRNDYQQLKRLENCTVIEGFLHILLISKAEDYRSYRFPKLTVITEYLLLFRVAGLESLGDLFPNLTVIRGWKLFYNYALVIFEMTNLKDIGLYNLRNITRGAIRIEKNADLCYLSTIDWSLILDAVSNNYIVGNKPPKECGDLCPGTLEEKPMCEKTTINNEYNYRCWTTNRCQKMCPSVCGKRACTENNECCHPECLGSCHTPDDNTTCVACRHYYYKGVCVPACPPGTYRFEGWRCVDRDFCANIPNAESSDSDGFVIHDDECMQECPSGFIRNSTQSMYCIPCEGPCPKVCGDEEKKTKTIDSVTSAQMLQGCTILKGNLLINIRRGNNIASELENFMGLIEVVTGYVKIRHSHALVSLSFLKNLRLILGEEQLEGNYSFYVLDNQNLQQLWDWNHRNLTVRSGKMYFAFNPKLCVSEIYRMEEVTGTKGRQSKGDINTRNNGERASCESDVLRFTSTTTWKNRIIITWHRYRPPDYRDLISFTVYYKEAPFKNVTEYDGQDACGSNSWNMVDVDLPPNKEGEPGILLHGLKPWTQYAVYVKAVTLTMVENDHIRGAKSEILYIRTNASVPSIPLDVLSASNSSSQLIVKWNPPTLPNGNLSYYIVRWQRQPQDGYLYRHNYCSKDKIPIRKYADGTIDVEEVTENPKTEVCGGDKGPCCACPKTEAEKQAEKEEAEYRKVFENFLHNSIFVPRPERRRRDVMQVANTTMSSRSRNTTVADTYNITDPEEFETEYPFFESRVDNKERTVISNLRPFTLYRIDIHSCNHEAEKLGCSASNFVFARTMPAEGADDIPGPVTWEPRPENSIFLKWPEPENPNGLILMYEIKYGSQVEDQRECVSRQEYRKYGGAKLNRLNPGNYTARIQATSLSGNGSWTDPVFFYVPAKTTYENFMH

pAKT IC50 (BxPC-3 50% ErbB3 KD) [1]: 2.8e-10 M | pAKT IC50 (BxPC-3 50% IGF1R KD) [1]: 1.6e-09 M | pAKT IC50 (BxPC-3 Vector Control) [1]: 2.5e-09 M | pAKT IC50 (BxPC-3) [2]: 3.9e-10 M (inferred) | pAKT IC50 (DU145) [2]: 2.8e-10 M (inferred) | pErbB3 IC50 (BxPC-3) [2]: 5.1e-11 M (inferred) | pErbB3 IC50 (DU145) [2]: 8.2e-11 M (inferred) | pAKT IC50 (BxPC-3) [3]: 3.5e-10 M (inferred) | pErbB3 IC50 (BxPC-3) [3]: 9.2e-11 M (inferred) | pAKT IC50 (BxPC-3) [4]: 5.7e-09 M (inferred) | pErbB3 IC50 (BxPC-3) [4]: 4.3e-10 M (inferred) | pAKT IC50 (BxPC-3, HRG 20 ng/ml) [5]: 3.06e-10 M | pAKT IC50 (BxPC-3, HRG 200 ng/ml) [5]: 3.26e-10 M | pErbB3 IC50 (BxPC-3, HRG 20 ng/ml) [5]: 2.41e-10 M | pErbB3 IC50 (BxPC-3, HRG 200 ng/ml) [5]: 1.98e-10 M
B1: ANTI-ErbB3 Ab# A (antibody, V domains shown)
VH: QVQLQQWGAGLLKPSETLSLTCAVYGGSFSGYYWSWIRQPPGKGLEWIGEINHSGSTNYNPSLKSRVTISVETSKNQFSLKLSSVTAADTAVYYCARDKWTWYFDLWGRGTLVTVSS
VL: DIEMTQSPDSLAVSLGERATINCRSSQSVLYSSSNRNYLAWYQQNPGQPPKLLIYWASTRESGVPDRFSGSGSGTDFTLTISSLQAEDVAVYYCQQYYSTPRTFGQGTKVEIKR

binding result (mouse IGF-1R-His): binds | pIGF1R % Inhibition (BxPC-3) [6]: 88% | pIGF1R IC50 (BxPC-3) [6]: 1.3e-09 M (inferred) | pErbB3 % Inhibition (BxPC-3) [7]: 111% | pErbB3 IC50 (BxPC-3) [7]: 2.6e-11 M (inferred) | pIGF1R IC50 (BxPC-3) [8]: 1.3e-09 M (inferred) | pErbB3 IC50 (BxPC-3) [3]: 2.6e-11 M (inferred) | binding result (mouse ErbB3-His): binds | binding result (rat ErbB3-His): binds | % IGF1R Downregulation (A549, 24 h) [9]: 48% | % IGF1R Downregulation (BxPC-3, 24 h) [9]: 53% | pAKT IC50 (BxPC-3, IGF1 40 ng/ml) [10]: 3.8e-10 M | pAKT IC50 (BxPC-3, IGF1 400 ng/ml) [10]: 6.4e-10 M | pIGF1R IC50 (BxPC-3, IGF1 40 ng/ml) [10]: 1e-09 M | pIGF1R IC50 (BxPC-3, IGF1 400 ng/ml) [10]: 2.4e-09 M | pAKT IC50 (BxPC-3, HRG 20 ng/ml) [5]: 7.12e-11 M | pAKT IC50 (BxPC-3, HRG 200 ng/ml) [5]: 6.46e-11 M | pErbB3 IC50 (BxPC-3, HRG 20 ng/ml) [5]: 6.16e-11 M | pErbB3 IC50 (BxPC-3, HRG 200 ng/ml) [5]: 6.53e-11 M
B2: M7-G1-M78 (bispecific antibody, human IgG1, lambda)
heavy: not shown
light: SSELTQDPAVSVALGQTVRITCQGDSLRSYYASWYQQKPGQAPVLVIYGKNNRPSGIPDRFSGSSSGNTASLTITGAQAEDEADYYCNSRDTPGNKWVFGGGTKVTVIGQPKAAPSVTLFPPSSEELQANKATLVCLVSDFYPGAVTVAWKADGSPVKVGVETTKPSKQSNNKYAASSYLSLTPEQWKSHRSYSCRVTHEGSTVEKTVAPAECS
notes: IgG1-(scFv)2: anti-ErbB3 Fab, anti-IGF-1R scFv; also called M7-M78; M7-78

pIGF1R % Inhibition (BxPC-3) [6]: 88% | pIGF1R IC50 (BxPC-3) [6]: 4.4e-09 M (inferred) | pErbB3 % Inhibition (BxPC-3) [7]: 99% | pErbB3 IC50 (BxPC-3) [7]: 4e-11 M (inferred) | pIGF1R IC50 (BxPC-3) [8]: 2.2e-08 M (inferred) | pErbB3 IC50 (BxPC-3) [3]: ~2.4e-14 M (inferred)
B3: B60-G1-P4 (bispecific antibody, human IgG1, lambda)
heavy: not shown
light: B2 light with T92W, K96Q, I108L
